In patent US20240400685A1 (Genmab, published 2024):

target: human CD3 epsilon (human, UniProt P07766 23-207); assay: cell-based or functional assay
Sequence (P07766 23-207): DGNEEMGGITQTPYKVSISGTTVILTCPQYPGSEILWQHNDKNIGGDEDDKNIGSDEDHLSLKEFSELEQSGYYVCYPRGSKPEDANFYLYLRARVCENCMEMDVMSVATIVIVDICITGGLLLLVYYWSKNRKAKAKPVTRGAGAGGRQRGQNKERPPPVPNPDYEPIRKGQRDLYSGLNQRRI

Row | Binder | Biological Activity (rel %), T-cell activation assay
1 | epcoritamab CIEX-HPLC acidic 1 fraction (bispecific antibody, human IgG1, kappa, lambda, N103 deamidated (85.3 rel %); residual signal peptide SEA before N-terminal E1 (13.0 rel %)) heavy 1: not shown light 1: not shown heavy 2: EVQLVESGGGLVQPDRSLRLSCAASGFTFHDYAMHWVRQAPGKGLEWVSTISWNSGTIGYADSVKGRFTISRDNAKNSLYLQMNSLRAEDTALYYCAKDIQYGNYYYGMDVWGQGTTVTVSSASTKGPSVFPLAPSSKSTSGGTAALGCLVKDYFPEPVTVSWNSGALTSGVHTFPAVLQSSGLYSLSSVVTVPSSSLGTQTYICNVNHKPSNTKVDKRVEPKSCDKTHTCPPCPAPEFEGGPSVFLFPPKPKDTLMISRTPEVTCVVVAVSHEDPEVKFNWYVDGVEVHNAKTKPREEQYNSTYRVVSVLTVLHQDWLNGKEYKCKVSNKALPAPIEKTISKAKGQPREPQVYTLPPSREEMTKNQVSLTCLVKGFYPSDIAVEWESNGQPENNYKTTPPVLDSDGSFFLYSRLTVDKSRWQQGNVFSCSVMHEALHNHYTQKSLSLSPG light 2: not shown | 9 rel %
2 | epcoritamab CIEX-HPLC acidic 2a fraction (bispecific antibody, human IgG1, kappa, lambda, N103 deamidated (29.6 rel %); N106 deamidated (22.6 rel %); non-consensus glycosylation A1F at N106 (15.0 rel %); residual signal peptide SEA before N-terminal E1 (26.9 rel %)) heavy 1: not shown light 1: not shown heavy 2: EVQLVESGGGLVQPDRSLRLSCAASGFTFHDYAMHWVRQAPGKGLEWVSTISWNSGTIGYADSVKGRFTISRDNAKNSLYLQMNSLRAEDTALYYCAKDIQYGNYYYGMDVWGQGTTVTVSSASTKGPSVFPLAPSSKSTSGGTAALGCLVKDYFPEPVTVSWNSGALTSGVHTFPAVLQSSGLYSLSSVVTVPSSSLGTQTYICNVNHKPSNTKVDKRVEPKSCDKTHTCPPCPAPEFEGGPSVFLFPPKPKDTLMISRTPEVTCVVVAVSHEDPEVKFNWYVDGVEVHNAKTKPREEQYNSTYRVVSVLTVLHQDWLNGKEYKCKVSNKALPAPIEKTISKAKGQPREPQVYTLPPSREEMTKNQVSLTCLVKGFYPSDIAVEWESNGQPENNYKTTPPVLDSDGSFFLYSRLTVDKSRWQQGNVFSCSVMHEALHNHYTQKSLSLSPG light 2: not shown | 25 rel %

Second part, the binder after the results:

Row | Biological Activity (rel %), T-cell activation assay | Binder
3 | 6 rel % | epcoritamab CIEX-HPLC pre-acidic 1 fraction (bispecific antibody, human IgG1, kappa, lambda, N103 deamidated (49.9 rel %); N106 deamidated (15.1 rel %); residual signal peptide SEA before N-terminal E1 (42.9 rel %); trace levels of a 3005a HC fragment around N103/N106) heavy 1: not shown light 1: not shown heavy 2: EVQLVESGGGLVQPDRSLRLSCAASGFTFHDYAMHWVRQAPGKGLEWVSTISWNSGTIGYADSVKGRFTISRDNAKNSLYLQMNSLRAEDTALYYCAKDIQYGNYYYGMDVWGQGTTVTVSSASTKGPSVFPLAPSSKSTSGGTAALGCLVKDYFPEPVTVSWNSGALTSGVHTFPAVLQSSGLYSLSSVVTVPSSSLGTQTYICNVNHKPSNTKVDKRVEPKSCDKTHTCPPCPAPEFEGGPSVFLFPPKPKDTLMISRTPEVTCVVVAVSHEDPEVKFNWYVDGVEVHNAKTKPREEQYNSTYRVVSVLTVLHQDWLNGKEYKCKVSNKALPAPIEKTISKAKGQPREPQVYTLPPSREEMTKNQVSLTCLVKGFYPSDIAVEWESNGQPENNYKTTPPVLDSDGSFFLYSRLTVDKSRWQQGNVFSCSVMHEALHNHYTQKSLSLSPG light 2: not shown
4 | 28 rel % | epcoritamab CIEX-HPLC acidic 2b fraction (bispecific antibody, human IgG1, kappa, lambda, N106 deamidated (61.4 rel %); N103 deamidated (5.8 rel %); non-consensus glycosylation G2F (3.4 rel %) and A1F at N106; residual signal peptide SEA before N-terminal E1 (12.1 rel %)) heavy 1: not shown light 1: not shown heavy 2: EVQLVESGGGLVQPDRSLRLSCAASGFTFHDYAMHWVRQAPGKGLEWVSTISWNSGTIGYADSVKGRFTISRDNAKNSLYLQMNSLRAEDTALYYCAKDIQYGNYYYGMDVWGQGTTVTVSSASTKGPSVFPLAPSSKSTSGGTAALGCLVKDYFPEPVTVSWNSGALTSGVHTFPAVLQSSGLYSLSSVVTVPSSSLGTQTYICNVNHKPSNTKVDKRVEPKSCDKTHTCPPCPAPEFEGGPSVFLFPPKPKDTLMISRTPEVTCVVVAVSHEDPEVKFNWYVDGVEVHNAKTKPREEQYNSTYRVVSVLTVLHQDWLNGKEYKCKVSNKALPAPIEKTISKAKGQPREPQVYTLPPSREEMTKNQVSLTCLVKGFYPSDIAVEWESNGQPENNYKTTPPVLDSDGSFFLYSRLTVDKSRWQQGNVFSCSVMHEALHNHYTQKSLSLSPG light 2: not shown
5 | 90 rel % | epcoritamab CIEX-HPLC acidic 3 fraction (bispecific antibody, human IgG1, kappa, lambda, N106 deamidated (76.0 rel %); trace levels of N103 deamidation) heavy 1: not shown light 1: not shown heavy 2: EVQLVESGGGLVQPDRSLRLSCAASGFTFHDYAMHWVRQAPGKGLEWVSTISWNSGTIGYADSVKGRFTISRDNAKNSLYLQMNSLRAEDTALYYCAKDIQYGNYYYGMDVWGQGTTVTVSSASTKGPSVFPLAPSSKSTSGGTAALGCLVKDYFPEPVTVSWNSGALTSGVHTFPAVLQSSGLYSLSSVVTVPSSSLGTQTYICNVNHKPSNTKVDKRVEPKSCDKTHTCPPCPAPEFEGGPSVFLFPPKPKDTLMISRTPEVTCVVVAVSHEDPEVKFNWYVDGVEVHNAKTKPREEQYNSTYRVVSVLTVLHQDWLNGKEYKCKVSNKALPAPIEKTISKAKGQPREPQVYTLPPSREEMTKNQVSLTCLVKGFYPSDIAVEWESNGQPENNYKTTPPVLDSDGSFFLYSRLTVDKSRWQQGNVFSCSVMHEALHNHYTQKSLSLSPG light 2: not shown
